From patent US20210009697A1 (Five Prime, published 2021)

T1: ICOS (UniProt Q9Y6W8 21-141, limits assumed)
T1 construct: also called inducible co-stimulator
T1 sequence (looked up): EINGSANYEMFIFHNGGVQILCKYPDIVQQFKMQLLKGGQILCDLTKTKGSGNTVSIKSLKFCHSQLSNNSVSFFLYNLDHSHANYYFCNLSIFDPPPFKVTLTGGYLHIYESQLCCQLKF

T2: CTLA-4 (human, UniProt P16410 37-162, limits assumed)
T2 construct: also called cytotoxic T lymphocyte antigen-4
T2 sequence (looked up): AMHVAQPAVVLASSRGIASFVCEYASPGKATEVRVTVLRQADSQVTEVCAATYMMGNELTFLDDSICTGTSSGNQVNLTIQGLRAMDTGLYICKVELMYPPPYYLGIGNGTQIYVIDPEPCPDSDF

T3: BTLA (UniProt Q7Z6A9 31-151, limits assumed)
T3 construct: also called B- and T-lymphocyte attenuator
T3 sequence (looked up): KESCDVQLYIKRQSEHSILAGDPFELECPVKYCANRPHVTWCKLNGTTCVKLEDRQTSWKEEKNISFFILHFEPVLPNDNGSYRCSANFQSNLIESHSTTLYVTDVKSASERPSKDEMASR

T4: mouse CSF1R (mouse, UniProt P09581 20-511, limits assumed)
T4 construct: In the mNFS60 proliferation assay the receptor is that of the cell line
T4 sequence (looked up): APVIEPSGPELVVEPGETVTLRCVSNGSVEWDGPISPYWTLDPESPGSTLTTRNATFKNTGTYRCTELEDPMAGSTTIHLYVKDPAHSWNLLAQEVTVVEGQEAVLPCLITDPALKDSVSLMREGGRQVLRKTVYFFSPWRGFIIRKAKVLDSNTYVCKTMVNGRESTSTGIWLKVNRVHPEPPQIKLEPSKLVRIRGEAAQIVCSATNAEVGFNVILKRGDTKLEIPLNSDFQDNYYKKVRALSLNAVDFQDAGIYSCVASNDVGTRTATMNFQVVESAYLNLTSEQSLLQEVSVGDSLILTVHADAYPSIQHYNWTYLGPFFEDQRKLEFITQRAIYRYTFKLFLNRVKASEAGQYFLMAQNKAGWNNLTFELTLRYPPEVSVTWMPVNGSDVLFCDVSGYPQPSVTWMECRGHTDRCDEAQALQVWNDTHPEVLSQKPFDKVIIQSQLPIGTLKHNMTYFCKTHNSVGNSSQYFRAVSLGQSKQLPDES


Key:
ICOS = molecular target: T1, ICOS; assay: in vitro, method not described
CTLA-4 = molecular target: T2, CTLA-4; assay: in vitro, method not described
BTLA = molecular target: T3, BTLA; assay: in vitro, method not described
mouse CSF1R = molecular target: T4, mouse CSF1R; assay: not described
[1] = molecular target: T5, human colony stimulating factor 1 receptor (CSF1R) (human, UniProt P07333 20-506, limits assumed); assay: not described
T5 construct: In the monocyte assays the receptor is the endogenous one on primary human monocytes; also called hCSF1R
T5 sequence (P07333 20-506 limits assumed): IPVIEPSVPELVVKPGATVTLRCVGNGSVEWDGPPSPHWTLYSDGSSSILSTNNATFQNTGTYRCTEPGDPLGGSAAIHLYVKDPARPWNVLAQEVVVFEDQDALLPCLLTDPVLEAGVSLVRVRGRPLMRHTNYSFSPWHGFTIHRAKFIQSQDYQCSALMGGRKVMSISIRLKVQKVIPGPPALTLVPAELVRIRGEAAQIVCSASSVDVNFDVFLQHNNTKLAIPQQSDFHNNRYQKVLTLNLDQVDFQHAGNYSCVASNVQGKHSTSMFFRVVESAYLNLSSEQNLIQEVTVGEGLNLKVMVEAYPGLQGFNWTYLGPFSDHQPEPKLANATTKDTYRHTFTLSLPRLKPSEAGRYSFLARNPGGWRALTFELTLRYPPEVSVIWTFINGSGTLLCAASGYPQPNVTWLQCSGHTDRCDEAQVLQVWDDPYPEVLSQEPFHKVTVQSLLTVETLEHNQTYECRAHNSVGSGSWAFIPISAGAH

Row | Binder | binding result (ICOS) | binding result (CTLA-4) | binding result (BTLA) | binding result (mouse CSF1R) | binding result [1]
1 | Nivolumab (antibody, human IgG4 S228P, kappa, V domains shown, also called Opdivo; 5C4) VH: QVQLVESGGGVVQPGRSLRLDCKASGITFSNSGMHWVRQAPGKGLEWVAVIWYDGSKRYYADSVKGRFTISRDNSKNTLFLQMNSLRAEDTAVYYCATNDDYWGQGTLVTVSS VL: EIVLTQSPATLSLSPGERATLSCRASQSVSSYLAWYQQKPGQAPRLLIYDASNRATGIPARFSGSGSGTDFTLTISSLEPEDFAVYYCQQSSNWPRTFGQGTKVEIKR | no binding | no binding | no binding | – | –
2 | Cabiralizumab (antibody, human IgG4 S228P, kappa, V domains shown, also called FPA008; HuAb1) VH: QVQLVQSGAEVKKPGSSVKVSCKASGYTFTDNYMIWVRQAPGQGLEWMGDINPYNGGTTFNQKFKGRVTITADKSTSTAYMELSSLRSEDTAVYYCARESPYFSNLYVMDYWGQGTLVTVSS VL: EIVLTQSPATLSLSPGERATLSCKASQSVDYDGDNYMNWYQQKPGQAPRLLIYAASNLESGIPARFSGSGSGTDFTLTISSLEPEDFAVYYCHLSNEDLSTFGGGTKVEIKR | – | – | – | no binding | binds
